Molecular target: Est1-(myc)13 (Saccharomyces cerevisiae (from context; not stated for this protein)) (UniProt P17214)
Experiment: co-immunoprecipitation with anti-Rat1 peptide antibodies from extracts of yeast over-expressing Est1-(myc)13, probed for myc

Sequence of UniProt P17214 (P17214 whole entry): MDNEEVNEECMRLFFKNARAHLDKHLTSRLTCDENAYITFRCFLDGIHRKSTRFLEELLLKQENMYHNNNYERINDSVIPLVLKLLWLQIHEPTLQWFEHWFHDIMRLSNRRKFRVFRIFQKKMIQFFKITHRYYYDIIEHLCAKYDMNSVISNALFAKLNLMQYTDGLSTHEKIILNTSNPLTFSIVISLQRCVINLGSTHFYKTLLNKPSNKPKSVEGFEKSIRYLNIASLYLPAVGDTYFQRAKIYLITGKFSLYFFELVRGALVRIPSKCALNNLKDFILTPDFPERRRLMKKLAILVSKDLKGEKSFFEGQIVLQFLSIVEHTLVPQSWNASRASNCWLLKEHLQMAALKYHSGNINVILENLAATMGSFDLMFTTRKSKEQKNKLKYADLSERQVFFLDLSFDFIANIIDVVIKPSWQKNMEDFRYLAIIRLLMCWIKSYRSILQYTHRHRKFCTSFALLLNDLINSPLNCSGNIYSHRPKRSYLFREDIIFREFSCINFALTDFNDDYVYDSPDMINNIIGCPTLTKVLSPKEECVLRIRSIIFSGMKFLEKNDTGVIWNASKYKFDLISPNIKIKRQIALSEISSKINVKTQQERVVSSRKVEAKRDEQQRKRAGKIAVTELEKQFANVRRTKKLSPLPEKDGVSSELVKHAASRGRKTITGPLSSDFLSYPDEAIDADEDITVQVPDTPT

## S. cerevisiae Rat1 protein (from UniProt Q02792 2-1006) (enzyme)
  co-immunoprecipitation efficiency: 5%

From patent US20120134928A1
